# Results: article PMC9482650, “Quantitative fragmentomics allow affinity mapping of interactomes” (Nature Communications, 2022)
# T1: APBA1_2, Q02410
# T1 sequence (Q02410 742-832, limits assumed, looked up): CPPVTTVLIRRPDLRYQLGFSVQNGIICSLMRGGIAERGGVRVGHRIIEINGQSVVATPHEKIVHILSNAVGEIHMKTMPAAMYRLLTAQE
# T2: CARD11, Q9BXL7
# T2 sequence (Q9BXL7 662-765, limits assumed, looked up): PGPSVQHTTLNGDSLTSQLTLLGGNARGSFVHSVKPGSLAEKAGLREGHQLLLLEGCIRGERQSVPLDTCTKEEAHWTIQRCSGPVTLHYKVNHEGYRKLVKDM
# T3: DFNB31_3, Q9P202
# T3 sequence (Q9P202 811-907, limits assumed, looked up): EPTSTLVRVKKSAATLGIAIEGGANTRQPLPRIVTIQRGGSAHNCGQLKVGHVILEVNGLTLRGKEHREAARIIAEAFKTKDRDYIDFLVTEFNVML
# T4: GRIP1_2, Q9Y3R0
# T4 sequence (Q9Y3R0 145-248, limits assumed, looked up): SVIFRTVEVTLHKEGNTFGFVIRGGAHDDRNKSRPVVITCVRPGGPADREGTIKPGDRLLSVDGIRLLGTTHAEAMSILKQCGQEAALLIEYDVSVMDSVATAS
# T5: GRIP1_3, Q9Y3R0
# T5 sequence (Q9Y3R0 247-346, limits assumed, looked up): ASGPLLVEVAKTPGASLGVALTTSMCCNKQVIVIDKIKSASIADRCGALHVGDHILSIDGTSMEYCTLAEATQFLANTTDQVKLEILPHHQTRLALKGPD
# T6: GRIP1_5, Q9Y3R0
# T6 sequence (Q9Y3R0 568-668, limits assumed, looked up): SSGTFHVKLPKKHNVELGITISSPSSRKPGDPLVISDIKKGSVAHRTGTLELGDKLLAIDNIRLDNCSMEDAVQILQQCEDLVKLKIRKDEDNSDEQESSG
# T7: LIN7C, Q9NUP9
# T7 sequence (Q9NUP9 88-185, limits assumed, looked up): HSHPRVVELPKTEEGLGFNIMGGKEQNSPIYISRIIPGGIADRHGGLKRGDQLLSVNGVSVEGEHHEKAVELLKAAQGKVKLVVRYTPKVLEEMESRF
# T8: MPP7, Q5T2T1
# T8 sequence (Q5T2T1 134-230, limits assumed, looked up): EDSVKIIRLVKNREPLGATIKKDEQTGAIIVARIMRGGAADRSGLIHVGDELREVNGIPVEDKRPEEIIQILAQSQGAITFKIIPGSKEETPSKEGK
# T9: SYNJ2BP, P57105
# T9 sequence (P57105 8-110, limits assumed, looked up): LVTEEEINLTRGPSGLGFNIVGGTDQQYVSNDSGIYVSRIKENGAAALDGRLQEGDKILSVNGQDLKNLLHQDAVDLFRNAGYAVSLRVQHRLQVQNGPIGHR
# T10: TJP3_3, O95049
# T10 sequence (O95049 375-456, limits assumed, looked up): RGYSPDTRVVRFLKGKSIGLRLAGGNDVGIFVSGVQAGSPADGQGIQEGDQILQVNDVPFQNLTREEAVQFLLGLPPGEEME
# Biological target: AHNAK1, Q09666
# Assay: holdup assay
# Design: key: below the threshold = too weak to quantify, mostly under pKd 3.1 to 4
# Details: plain residues with an end cap or a label only (N-terminal biotin on a linker: ado-ado)
row,Binder,pKd
1,"LPAHHNATRL [SLC34A1, Q06495;Q06495-1]",below the threshold
2,"YLEPVLSSEL [ATP2A2, P16615;P16615-3]",below the threshold

# Biological target: T1, APBA1_2, Q02410
# Assay: holdup assay
# Design: key: below the threshold = too weak to quantify, mostly under pKd 3.1 to 4
# Details: plain residues with an end cap or a label only (N-terminal biotin on a linker: ado-ado)
row,Binder,pKd
1,"LPAHHNATRL [SLC34A1, Q06495;Q06495-1]",4
2,"YLEPVLSSEL [ATP2A2, P16615;P16615-3]",below the threshold

# Biological target: T2, CARD11, Q9BXL7
# Assay: holdup assay
# Design: key: below the threshold = too weak to quantify, mostly under pKd 3.1 to 4
# Details: plain residues with an end cap or a label only (N-terminal biotin on a linker: ado-ado)
row,Binder,pKd
1,"LPAHHNATRL [SLC34A1, Q06495;Q06495-1]",below the threshold
2,"YLEPVLSSEL [ATP2A2, P16615;P16615-3]",below the threshold

# Biological target: T3, DFNB31_3, Q9P202
# Assay: holdup assay
# Design: key: below the threshold = too weak to quantify, mostly under pKd 3.1 to 4
# Details: plain residues with an end cap or a label only (N-terminal biotin on a linker: ado-ado)
row,Binder,pKd
1,"LPAHHNATRL [SLC34A1, Q06495;Q06495-1]",below the threshold
2,"YLEPVLSSEL [ATP2A2, P16615;P16615-3]",4.03

# Biological target: DLG1_3, Q12959
# Assay: holdup assay
# Design: key: below the threshold = too weak to quantify, mostly under pKd 3.1 to 4
# Details: plain residues with an end cap or a label only (N-terminal biotin on a linker: ado-ado)
# Sequence of DLG1_3, Q12959 (Q12959 457-571): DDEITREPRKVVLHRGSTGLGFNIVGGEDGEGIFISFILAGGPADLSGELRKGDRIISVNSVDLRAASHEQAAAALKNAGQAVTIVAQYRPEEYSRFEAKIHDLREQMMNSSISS
row,Binder,pKd
1,"LPAHHNATRL [SLC34A1, Q06495;Q06495-1]",below the threshold
2,"YLEPVLSSEL [ATP2A2, P16615;P16615-3]",below the threshold

# Biological target: DLG4_3, P78352
# Assay: holdup assay
# Design: key: below the threshold = too weak to quantify, mostly under pKd 3.1 to 4
# Details: plain residues with an end cap or a label only (N-terminal biotin on a linker: ado-ado)
# Sequence of DLG4_3, P78352 (P78352 306-403): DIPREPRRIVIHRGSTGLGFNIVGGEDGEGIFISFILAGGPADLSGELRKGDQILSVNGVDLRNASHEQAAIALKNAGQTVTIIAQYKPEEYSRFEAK
row,Binder,pKd
1,"LPAHHNATRL [SLC34A1, Q06495;Q06495-1]",below the threshold
2,"YLEPVLSSEL [ATP2A2, P16615;P16615-3]",below the threshold

# Biological target: FRMPD3, Q5JV73
# Assay: holdup assay
# Design: key: below the threshold = too weak to quantify, mostly under pKd 3.1 to 4
# Details: plain residues with an end cap or a label only (N-terminal biotin on a linker: ado-ado)
# Sequence of FRMPD3, Q5JV73 (Q5JV73 12-100): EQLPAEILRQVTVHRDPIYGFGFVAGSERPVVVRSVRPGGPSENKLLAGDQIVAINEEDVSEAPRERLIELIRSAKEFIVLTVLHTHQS
row,Binder,pKd
1,"LPAHHNATRL [SLC34A1, Q06495;Q06495-1]",below the threshold
2,"YLEPVLSSEL [ATP2A2, P16615;P16615-3]",below the threshold

# Biological target: GORASP2, Q9H8Y8
# Assay: holdup assay
# Design: key: below the threshold = too weak to quantify, mostly under pKd 3.1 to 4
# Details: plain residues with an end cap or a label only (N-terminal biotin on a linker: ado-ado)
row,Binder,pKd
1,"LPAHHNATRL [SLC34A1, Q06495;Q06495-1]",below the threshold
2,"YLEPVLSSEL [ATP2A2, P16615;P16615-3]",below the threshold

# Biological target: GRID2IP_1, A4D2P6
# Assay: holdup assay
# Design: key: below the threshold = too weak to quantify, mostly under pKd 3.1 to 4
# Details: plain residues with an end cap or a label only (N-terminal biotin on a linker: ado-ado)
# Sequence of GRID2IP_1, A4D2P6 (A4D2P6 1-87): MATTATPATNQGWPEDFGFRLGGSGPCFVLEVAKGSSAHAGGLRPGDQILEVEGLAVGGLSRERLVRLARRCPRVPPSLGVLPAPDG
row,Binder,pKd
1,"LPAHHNATRL [SLC34A1, Q06495;Q06495-1]",below the threshold
2,"YLEPVLSSEL [ATP2A2, P16615;P16615-3]",below the threshold

# Biological target: T4, GRIP1_2, Q9Y3R0
# Assay: holdup assay
# Design: key: below the threshold = too weak to quantify, mostly under pKd 3.1 to 4
# Details: plain residues with an end cap or a label only (N-terminal biotin on a linker: ado-ado)
row,Binder,pKd
1,"LPAHHNATRL [SLC34A1, Q06495;Q06495-1]",below the threshold
2,"YLEPVLSSEL [ATP2A2, P16615;P16615-3]",below the threshold

# Biological target: T5, GRIP1_3, Q9Y3R0
# Assay: holdup assay
# Design: key: below the threshold = too weak to quantify, mostly under pKd 3.1 to 4
# Details: plain residues with an end cap or a label only (N-terminal biotin on a linker: ado-ado)
row,Binder,pKd
1,"LPAHHNATRL [SLC34A1, Q06495;Q06495-1]",below the threshold
2,"YLEPVLSSEL [ATP2A2, P16615;P16615-3]",below the threshold

# Biological target: T6, GRIP1_5, Q9Y3R0
# Assay: holdup assay
# Design: key: below the threshold = too weak to quantify, mostly under pKd 3.1 to 4
# Details: plain residues with an end cap or a label only (N-terminal biotin on a linker: ado-ado)
row,Binder,pKd
1,"LPAHHNATRL [SLC34A1, Q06495;Q06495-1]",below the threshold
2,"YLEPVLSSEL [ATP2A2, P16615;P16615-3]",below the threshold

# Biological target: GRIP2_3, Q9C0E4
# Assay: holdup assay
# Design: key: below the threshold = too weak to quantify, mostly under pKd 3.1 to 4
# Details: plain residues with an end cap or a label only (N-terminal biotin on a linker: ado-ado)
# Sequence of GRIP2_3, Q9C0E4 (Q9C0E4 238-339): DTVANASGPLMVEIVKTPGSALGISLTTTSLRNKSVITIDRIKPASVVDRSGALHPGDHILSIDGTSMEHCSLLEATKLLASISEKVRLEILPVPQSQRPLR
row,Binder,pKd
1,"LPAHHNATRL [SLC34A1, Q06495;Q06495-1]",below the threshold
2,"YLEPVLSSEL [ATP2A2, P16615;P16615-3]",below the threshold

# Biological target: GRIP2_7, Q9C0E4
# Assay: holdup assay
# Design: key: below the threshold = too weak to quantify, mostly under pKd 3.1 to 4
# Details: plain residues with an end cap or a label only (N-terminal biotin on a linker: ado-ado)
# Sequence of GRIP2_7, Q9C0E4 (Q9C0E4 934-1023): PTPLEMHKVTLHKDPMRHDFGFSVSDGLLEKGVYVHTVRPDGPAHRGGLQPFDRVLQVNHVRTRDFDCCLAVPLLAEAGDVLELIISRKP
row,Binder,pKd
1,"LPAHHNATRL [SLC34A1, Q06495;Q06495-1]",below the threshold
2,"YLEPVLSSEL [ATP2A2, P16615;P16615-3]",below the threshold

# Biological target: HTRA2, O43464
# Assay: holdup assay
# Design: key: below the threshold = too weak to quantify, mostly under pKd 3.1 to 4
# Details: plain residues with an end cap or a label only (N-terminal biotin on a linker: ado-ado)
# Sequence of HTRA2, O43464 (O43464 355-458): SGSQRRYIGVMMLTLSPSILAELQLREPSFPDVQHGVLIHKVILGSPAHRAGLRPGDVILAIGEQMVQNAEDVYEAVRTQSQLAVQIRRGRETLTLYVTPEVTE
row,Binder,pKd
1,"LPAHHNATRL [SLC34A1, Q06495;Q06495-1]",below the threshold
2,"YLEPVLSSEL [ATP2A2, P16615;P16615-3]",below the threshold

# Biological target: LAP2, Q96RT1
# Assay: holdup assay
# Design: key: below the threshold = too weak to quantify, mostly under pKd 3.1 to 4
# Details: plain residues with an end cap or a label only (N-terminal biotin on a linker: ado-ado)
# Sequence of LAP2, Q96RT1 (Q96RT1 other isoform, or with tags, fused parts or gaps): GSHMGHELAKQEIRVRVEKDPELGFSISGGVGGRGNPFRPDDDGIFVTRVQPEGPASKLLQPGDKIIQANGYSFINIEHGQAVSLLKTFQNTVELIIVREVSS
row,Binder,pKd
1,"LPAHHNATRL [SLC34A1, Q06495;Q06495-1]",below the threshold

# Biological target: T7, LIN7C, Q9NUP9
# Assay: holdup assay
# Design: key: below the threshold = too weak to quantify, mostly under pKd 3.1 to 4
# Details: plain residues with an end cap or a label only (N-terminal biotin on a linker: ado-ado)
row,Binder,pKd
1,"LPAHHNATRL [SLC34A1, Q06495;Q06495-1]",below the threshold

# Biological target: MAGI2_2, Q86UL8
# Assay: holdup assay
# Design: key: below the threshold = too weak to quantify, mostly under pKd 3.1 to 4
# Details: plain residues with an end cap or a label only (N-terminal biotin on a linker: ado-ado)
# Sequence of MAGI2_2, Q86UL8 (Q86UL8 410-522): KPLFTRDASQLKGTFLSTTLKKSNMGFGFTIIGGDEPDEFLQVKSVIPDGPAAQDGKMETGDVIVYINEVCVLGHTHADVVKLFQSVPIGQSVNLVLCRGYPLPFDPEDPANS
row,Binder,pKd
1,"YLEPVLSSEL [ATP2A2, P16615;P16615-3]",below the threshold

# Biological target: MAGI2_4, Q86UL8
# Assay: holdup assay
# Design: key: below the threshold = too weak to quantify, mostly under pKd 3.1 to 4
# Details: plain residues with an end cap or a label only (N-terminal biotin on a linker: ado-ado)
# Sequence of MAGI2_4, Q86UL8 (Q86UL8 772-865): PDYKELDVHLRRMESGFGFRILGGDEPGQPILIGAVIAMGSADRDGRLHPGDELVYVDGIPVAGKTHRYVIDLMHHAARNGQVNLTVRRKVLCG
row,Binder,pKd
1,"LPAHHNATRL [SLC34A1, Q06495;Q06495-1]",below the threshold
2,"YLEPVLSSEL [ATP2A2, P16615;P16615-3]",below the threshold

# Biological target: T8, MPP7, Q5T2T1
# Assay: holdup assay
# Design: key: below the threshold = too weak to quantify, mostly under pKd 3.1 to 4
# Details: plain residues with an end cap or a label only (N-terminal biotin on a linker: ado-ado)
row,Binder,pKd
1,"LPAHHNATRL [SLC34A1, Q06495;Q06495-1]",below the threshold
2,"YLEPVLSSEL [ATP2A2, P16615;P16615-3]",below the threshold

# Biological target: PDZRN4_1, Q6ZMN7
# Assay: holdup assay
# Design: key: below the threshold = too weak to quantify, mostly under pKd 3.1 to 4
# Details: plain residues with an end cap or a label only (N-terminal biotin on a linker: ado-ado)
# Sequence of PDZRN4_1, Q6ZMN7 (Q6ZMN7 213-318): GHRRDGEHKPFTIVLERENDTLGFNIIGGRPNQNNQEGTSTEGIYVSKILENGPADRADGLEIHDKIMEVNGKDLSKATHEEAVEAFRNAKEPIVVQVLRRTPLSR
row,Binder,pKd
1,"LPAHHNATRL [SLC34A1, Q06495;Q06495-1]",4.2
2,"YLEPVLSSEL [ATP2A2, P16615;P16615-3]",below the threshold

# Biological target: SCRIB_1, Q14160
# Assay: holdup assay
# Design: key: below the threshold = too weak to quantify, mostly under pKd 3.1 to 4
# Details: plain residues with an end cap or a label only (N-terminal biotin on a linker: ado-ado)
# Sequence of SCRIB_1, Q14160 (Q14160 718-814): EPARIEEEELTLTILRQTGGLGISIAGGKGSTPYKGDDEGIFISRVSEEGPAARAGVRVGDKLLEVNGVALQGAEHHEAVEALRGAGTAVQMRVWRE
row,Binder,pKd
1,"YLEPVLSSEL [ATP2A2, P16615;P16615-3]",4.38

# Biological target: SCRIB_2, Q14160
# Assay: holdup assay
# Design: key: below the threshold = too weak to quantify, mostly under pKd 3.1 to 4
# Details: plain residues with an end cap or a label only (N-terminal biotin on a linker: ado-ado)
# Sequence of SCRIB_2, Q14160 (Q14160 857-960): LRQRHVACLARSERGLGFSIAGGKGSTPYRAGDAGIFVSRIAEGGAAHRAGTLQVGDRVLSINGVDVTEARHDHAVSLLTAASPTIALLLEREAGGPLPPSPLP
row,Binder,pKd
1,"LPAHHNATRL [SLC34A1, Q06495;Q06495-1]",below the threshold

# Biological target: SNX27, Q96L92
# Assay: holdup assay
# Design: key: below the threshold = too weak to quantify, mostly under pKd 3.1 to 4
# Details: plain residues with an end cap or a label only (N-terminal biotin on a linker: ado-ado)
row,Binder,pKd
1,"LPAHHNATRL [SLC34A1, Q06495;Q06495-1]",4.19
2,"YLEPVLSSEL [ATP2A2, P16615;P16615-3]",4.12

# Biological target: T9, SYNJ2BP, P57105
# Assay: holdup assay
# Design: key: below the threshold = too weak to quantify, mostly under pKd 3.1 to 4
# Details: plain residues with an end cap or a label only (N-terminal biotin on a linker: ado-ado)
row,Binder,pKd
1,"LPAHHNATRL [SLC34A1, Q06495;Q06495-1]",below the threshold
2,"YLEPVLSSEL [ATP2A2, P16615;P16615-3]",4.24

# Biological target: TJP2_1, Q9UDY2
# Assay: holdup assay
# Design: key: below the threshold = too weak to quantify, mostly under pKd 3.1 to 4
# Details: plain residues with an end cap or a label only (N-terminal biotin on a linker: ado-ado)
# Sequence of TJP2_1, Q9UDY2 (Q9UDY2 24-128): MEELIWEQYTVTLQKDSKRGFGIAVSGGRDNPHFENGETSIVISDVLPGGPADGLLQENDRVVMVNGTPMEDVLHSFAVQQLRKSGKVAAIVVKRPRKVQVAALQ
row,Binder,pKd
1,"YLEPVLSSEL [ATP2A2, P16615;P16615-3]",below the threshold

# Biological target: T10, TJP3_3, O95049
# Assay: holdup assay
# Design: key: below the threshold = too weak to quantify, mostly under pKd 3.1 to 4
# Details: plain residues with an end cap or a label only (N-terminal biotin on a linker: ado-ado)
row,Binder,pKd
1,"LPAHHNATRL [SLC34A1, Q06495;Q06495-1]",below the threshold
2,"YLEPVLSSEL [ATP2A2, P16615;P16615-3]",below the threshold
